Series [1] in a line: BTK FAC plasma stability assay, mouse plasma. Format: in vitro ADME. The protocol: (§1) Plasma stability was conducted in Dulbecco's PBS buffer, mouse plasma, rat plasma or human plasma frozen with K3-EDTA from BiolVT). Thawed plasma was centrifuged prior to warming for 5 minutes at 37° C. Working solutions were prepared from 10 mM DMSO solution to 500 µM in acetonitrile:water (1:1); 2 µL of working solution was added to 198 µL blank plasma or PBS and mixed manually. 4×45 µL of spiked matrix was aliquoted into glass incubation plates (96-well DW glass microplate) and sealed with blue silicon/PTFE seal; then incubated on a Thermo shaker (38° C. 300 RPM). Samples were prepared at 0, 2, 6 and 24 h timepoints, by protein precipitation with chilled acetonitrile containing internal standard Glyburide (0.2 µM). Precipitated samples were shaken for 10 minutes and stored at 4° C. until completion of the study. Following precipitation of the terminal sample, samples were frozen at −80° C. for 1 hour. Samples were then thawed prior to centrifugation (20 minutes, 4500 RPM at 4° C.). 50 µL of supernatant of each sample was transferred to 384 well analysis plate containing 30 µL of water. Semi quantitative analysis (analyte: internal standard peak area ratio) was performed by LC-MS/MS using a Sciex QTrap 5500.

Series [2] is described as follows: BTK FAC plasma stability assay, cyno plasma. The format is in vitro ADME, cynomolgus monkey.
The nature of series [3]: BTK FAC plasma stability assay, dog plasma. Format: in vitro ADME.
Series [4] can be described thus: BTK FAC plasma stability assay, rat plasma. Format: in vitro ADME. The protocol: as §1
Series [5] is described as follows: BTK FAC plasma stability assay, PBS buffer arm. Format: physicochemical. Conditions: for Plasma stability (h) PBS: incubation to 24 h. How it is done:
as §1

Molecules are shown by their SMILES.

As to `CCCCCCCCCCCN(C(=O)CCCCCCCCCC(=O)O)C(CCC(=O)NCCOCCOCCOCCOCCOCCOCCOCCOCCOCCOCCOCCOCCOCCOCCOCCOCCC(=O)NCC(=O)OC(C)(C)c1ccc(C(=O)Nc2cc(F)cc(-c3ncnc4[nH]c(-c5ccc(CCN6CCC7(CC6)CCN(C(=O)c6ccc(OC)c(N8CCC(=O)NC8=O)c6)CC7)cc5)cc34)c2C)c(F)c1)C(=O)O` (stereo not shown) [Example A9, 62-Carboxy-2-(4-((3-(6-(4-(2-(9-(3-(2,4-dioxotetrahydropyrimidin-(2H)-yl)-4-methoxybenzoyl)-3,9-diazaspiro[5.5]undecan-3-yl)ethyl)phenyl)-7H-pyrrolo[2,3-d]pyrimidin-4-yl)-5-fluoro-2-methylphenyl)carbamoyl)-3-fluorophenyl)-2-methyl-4,7,59,64-tetraoxo-63-undecyl-3,10,13,16,19,22,25,28,31,34,37,40,43,46,49,52,55-heptadecaoxa-6,58,63-triazatetraheptacontan-74-oic acid], the “% Release of degrader after 24 h mouse” value in series [1] was 15.6%. Further, in series [1] (incubation to 24 h), the “Plasma stability (h) mouse” value was 4.6 h. Besides, in series [2], the “Plasma stability (h) cyno” value was determined as 30.8 h and the “% Release of degrader after 24 h cyno” value amounted to 3.7%. Further, in series [3], the “Plasma stability (h) dog” value was above 48 h and the “% Release of degrader after 24 h dog” value is 5.7%. Further, the “% Release of degrader after 24 h rat” value in series [4] is given as 22.4%. For the same compound, the “Plasma stability (h) rat” value in series [4] (incubation to 24 h) turned out to be 6.8 h. For the same compound, in series [5], the “% Release of degrader after 24 h PBS” value worked out at 1.2% and the “Plasma stability (h) PBS” value is above 48 h.

Consider `CCCCCCCCCCCN(C(=O)CCCCCCCCCC(=O)O)C(CCC(=O)NCCOCCOCCOCCOCCOCCOCCOCCOCCOCCOCCOCCOCCC(=O)NCCC(=O)OC(C)(C)c1ccc(C(=O)Nc2cc(F)cc(-c3ncnc4[nH]c(-c5ccc(CCN6CCC7(CC6)CCN(C(=O)c6ccc(OC)c(N8CCC(=O)NC8=O)c6)CC7)cc5)cc34)c2C)c(F)c1)C(=O)O` (stereo not shown) [Example A12, 51-Carboxy-2-(4-((3-(6-(4-(2-(9-(3-(2,4-dioxotetrahydropyrimidin-1(2H)-yl)-4-methoxybenzoyl)-3,9-diazaspiro[5.5]undecan-3-yl)ethyl)phenyl)-7H-pyrrolo[2,3-d]pyrimidin-4-yl)-5-fluoro-2-methylphenyl)carbamoyl)-3-fluorophenyl)-2-methyl-4,8,48,53-tetraoxo-52-undecyl-3,11,14,17,20,23,26,29,32,35,38,41,44-tridecaoxa-7,47,52-triazatrihexacontan-63-oic acid], for which the “% Release of degrader after 24 h mouse” value in series [1] amounted to 14.2%. Besides, the “Plasma stability (h) mouse” value in series [1] (incubation to 24 h) was 27.3 h. Besides, in series [2], the “Plasma stability (h) cyno” value amounted to 44.9 h and the “% Release of degrader after 24 h cyno” value was determined as 0.5%. In addition, in series [3], the “Plasma stability (h) dog” value is reported as above 48 h and the “% Release of degrader after 24 h dog” value is 1.2%. For the same compound, the “% Release of degrader after 24 h rat” value in series [4] came out at 2%. The “Plasma stability (h) rat” value in series [4] (incubation to 24 h) was above 49 h. In series [5], the “% Release of degrader after 24 h PBS” value is 0.3% and the “Plasma stability (h) PBS” value is listed as above 48 h.

For `CCCCCCCCCCCN(C(=O)CCCCCCCCCC(=O)O)C(CCC(=O)NCCOCCOCCOCCOCCOCCOCCOCCOCCOCCOCCOCCOCCOCCOCCOCCOCCOCCOCCOCCOCCOCCOCCOCCOCCC(=O)NCC(=O)OC(C)(C)c1ccc(C(=O)Nc2cc(F)cc(-c3ncnc4[nH]c(-c5ccc(CCN6CCC7(CC6)CCN(C(=O)c6ccc(OC)c(N8CCC(=O)NC8=O)c6)CC7)cc5)cc34)c2C)c(F)c1)C(=O)O` (stereo not shown) [Example A32, 86-Carboxy-2-(4-((3-(6-(4-(2-(9-(3-(2,4-dioxotetrahydropyrimidin-1(2H)-yl)-4-methoxybenzoyl)-3,9-diazaspiro[5.5]undecan-3-yl)ethyl)phenyl)-7H-pyrrolo[2,3-d]pyrimidin-4-yl)-5-fluoro-2-methylphenyl)carbamoyl)-3-fluorophenyl)-2-methyl-4,7,83,88-tetraoxo-87-undecyl-3,10,13,16,19,22,25,28,31,34,37,40,43,46,49,52,55,58,61,64,67,70,73,76,79-pentacosaoxa-6,82,87-triazaoctanonacontan-98-oic acid], in series [1], the “% Release of degrader after 24 h mouse” value is on record as 5.8%. Also, the “Plasma stability (h) mouse” value in series [1] (incubation to 24 h) is 27 h. Also, in series [3], the “Plasma stability (h) dog” value turned out to be 37.3 h and the “% Release of degrader after 24 h dog” value was 4.7%. Moreover, the “% Release of degrader after 24 h rat” value in series [4] worked out at 6.1%. In addition, the “Plasma stability (h) rat” value in series [4] (incubation to 24 h) is 20.8 h. In series [5], the “% Release of degrader after 24 h PBS” value turned out to be 1% and the “Plasma stability (h) PBS” value was above 48 h.

Take `CCCCCCCCCCCN(C(=O)CCCCCCCCCC(=O)O)[C@@H](CCC(=O)N(CCNC(=O)CCOCCOCCOCCOCCOCCOCCOCCOCCOCCOCCOCCOC)CC(=O)OC(C)(C)c1ccc(C(=O)Nc2cc(F)cc(-c3ncnc4[nH]c(-c5ccc(CCN6CCC7(CC6)CCN(C(=O)c6ccc(OC)c(N8CCC(=O)NC8=O)c6)CC7)cc5)cc34)c2C)c(F)c1)C(=O)O` [Example A37, (S)-46-Carboxy-42-(2-((2-(4-((3-(6-(4-(2-(9-(3-(2,4-dioxotetrahydropyrimidin-1(2H)-yl)-4-methoxybenzoyl)-3,9-diazaspiro[5.5]undecan-3-yl)ethyl)phenyl)-7H-pyrrolo[2,3-d]pyrimidin-4-yl)-5-fluoro-2-methylphenyl)carbamoyl)-3-fluorophenyl)propan-2-yl)oxy)-2-oxoethyl)-38,43,48-trioxo-47-undecyl-2,5,8,11,14,17,20,23,26,29,32,35-dodecaoxa-39,42,47-triazaoctapentacontan-58-oic acid]: the “% Release of degrader after 24 h mouse” value in series [1] came out at 2.1%. Also, the half-life at 5 µM is above 48 h in series [1] (incubation to 24 h), 44.7 h in series [3] (read-out: Plasma stability (h) dog (converted)) and above 48 h in series [4] (incubation to 24 h). For the same compound, in series [3], the “% Release of degrader after 24 h dog” value came to 2.2%. Also, the “% Release of degrader after 24 h rat” value in series [4] was found to be 1.5%. In series [5], the “% Release of degrader after 24 h PBS” value was determined as 1.7%. Also, the “Plasma stability (h) PBS” value in series [5] is listed as above 48 h.

As to `CCCCCCCCCCCN(C(=O)CCCCCCCCCC(=O)O)C(CCC(=O)NCCOCCOCCOCCOCCOCCOCCOCCOCCOCCOCCOCCOCCC(=O)NCC(=O)NCn1c(-c2ccc(CCN3CCC4(CC3)CCN(C(=O)c3ccc(OC)c(N5CCC(=O)NC5=O)c3)CC4)cc2)cc2c(-c3cc(F)cc(NC(=O)c4ccc(C(C)(C)O)cc4F)c3C)ncnc21)C(=O)O` (stereo not shown) [Example A38, 49-Carboxy-1-(6-(4-(2-(9-(3-(2,4-dioxotetrahydropyrimidin-1(2H)-yl)-4-methoxybenzoyl)-3,9-diazaspiro[5.5]undecan-3-yl)ethyl)phenyl)-4-(5-fluoro-3-(2-fluoro-4-(2-hydroxypropan-2-yl)benzamido)-2-methylphenyl)-7H-pyrrolo[2,3-d]pyrimidin-7-yl)-3,6,46,51-tetraoxo-50-undecyl-9,12,15,18,21,24,27,30,33,36,39,42-dodecaoxa-2,5,45,50-tetraazahenhexacontan-61-oic acid], in series [1], the “% Release of degrader after 24 h mouse” value is reported as 0.1%. Besides, the “Plasma stability (h) mouse” value in series [1] (incubation to 24 h) was above 48 h. Further, in series [3], the “Plasma stability (h) dog” value was above 48 h and the “% Release of degrader after 24 h dog” value came to 0.1%. Moreover, the “% Release of degrader after 24 h rat” value in series [4] came to 0.1%. The “Plasma stability (h) rat” value in series [4] (incubation to 24 h) is above 48 h. Moreover, in series [5], the “% Release of degrader after 24 h PBS” value amounted to 0.2% and the “Plasma stability (h) PBS” value was above 48 h.

As for `CCCCCCCCCCCN(C(=O)CCCCCCCCCC(=O)O)C(CCC(=O)NCCOCCOCCOCCOCCOCCOCCOCCOCCOCCOCCOCCOCCC(=O)NCCOP(=O)(O)OC(C)(C)c1ccc(C(=O)Nc2cc(F)cc(-c3ncnc4[nH]c(-c5ccc(CCN6CCC7(CC6)CCN(C(=O)c6ccc(OC)c(N8CCC(=O)NC8=O)c6)CC7)cc5)cc34)c2C)c(F)c1)C(=O)O` (stereo not shown) [Example A39, 47-Carboxy-1-((((2-(4-((3-(6-(4-(2-(9-(3-(2,4-dioxotetrahydropyrimidin-1(2H)-yl)-4-methoxybenzoyl)-3,9-diazaspiro[5.5]undecan-3-yl)ethyl)phenyl)-7H-pyrrolo[2,3-d]pyrimidin-4-yl)-5-fluoro-2-methylphenyl)carbamoyl)-3-fluorophenyl)propan-2-yl)oxy)(hydroxy)phosphoryl)oxy)-4,44,49-trioxo-48-undecyl-7,10,13,16,19,22,25,28,31,34,37,40-dodecaoxa-3,43,48-triazanonapentacontan-59-oic acid], in series [1], the “% Release of degrader after 24 h mouse” value was found to be 0%. Besides, in series [1] (incubation to 24 h), the “Plasma stability (h) mouse” value was above 48 h. Also, in series [3], the “Plasma stability (h) dog” value was 39.0 h and the “% Release of degrader after 24 h dog” value is listed as 0%. In addition, the “% Release of degrader after 24 h rat” value in series [4] was found to be 0%. Besides, the “Plasma stability (h) rat” value in series [4] (incubation to 24 h) is recorded as above 48 h. Further, in series [5], the “% Release of degrader after 24 h PBS” value is 0% and the “Plasma stability (h) PBS” value is above 48 h.
